Key:
Assay in all cases: cell_activity
[1] = tested on: zebrafish nd4 reverse mitoTALE-nickase-1 (synthetic (Xanthomonas TALE-FokI)?); details: nd4 nickase-1 + nickase-2, zebrafish embryos
[2] = tested on: zebrafish nd4 reverse mitoTALE-nickase-2 (synthetic (Xanthomonas TALE-FokI)?); details: nd4 nickase-1 + nickase-2, zebrafish embryos
[3] = tested on: zebrafish nd5 forward mitoTALE-nickase (synthetic (Xanthomonas TALE-FokI)?); details: nd5+atp8 nickases, >90% with nd4 nuclease
[4] = tested on: zebrafish nd4 reverse mitoTALE nuclease (synthetic (Xanthomonas TALE-FokI)?); details: co-injected with nd5 and atp8 nickases; heteroplasmic shift to about 2-10%
[5] = tested on: zebrafish nd4 forward mitoTALE-nickase-2 (synthetic (Xanthomonas TALE-FokI)?); details: nd4 nickase-1 + nickase-2, zebrafish embryos
[6] = tested on: zebrafish nd5 reverse mitoTALE-nickase (synthetic (Xanthomonas TALE-FokI)?); details: nd5+atp8 nickases, >90% with nd4 nuclease
[7] = tested on: zebrafish atp8 reverse mitoTALE-nickase (synthetic (Xanthomonas TALE-FokI)?); details: nd5+atp8 nickases, >90% with nd4 nuclease
[8] = tested on: zebrafish nd4 forward mitoTALE nuclease (synthetic (Xanthomonas TALE-FokI)?); details: co-injected with nd5 and atp8 nickases; heteroplasmic shift to about 2-10%
[9] = tested on: zebrafish atp8 forward mitoTALE-nickase (synthetic (Xanthomonas TALE-FokI)?); details: nd5+atp8 nickases, >90% with nd4 nuclease
[10] = tested on: zebrafish nd4 forward mitoTALE-nickase-1 (synthetic (Xanthomonas TALE-FokI)?); details: nd4 nickase-1 + nickase-2, zebrafish embryos

AAGTTCTGGTTTTAA (double strand) [zebrafish nd4 nickase-1 reverse half-site]
activity (% embryos with deletion) [1]: 50

ACGAGTTAGAAGCAT (double strand) [zebrafish nd4 nickase-2 reverse half-site]
activity (% embryos with deletion) [2]: 50

AGGGCTAATGATAGT (double strand) [zebrafish nd5 forward half-site]
activity (% embryos with deletion) [3]: 30

CGGGTAATAATGATT (double strand) [zebrafish nd4 nuclease reverse half-site]
activity (% embryos with deletion) [4]: > 90

GACTAAAATGAACCT (double strand) [zebrafish nd4 nickase-2 forward half-site]
activity (% embryos with deletion) [5]: 50

GCTAGATGTGGTTGG (double strand) [zebrafish nd5 reverse half-site]
activity (% embryos with deletion) [6]: 30

TAGGTTGAATGTGAT (double strand) [zebrafish atp8 reverse half-site]
activity (% embryos with deletion) [7]: 30

TATATTCGAAGCTAC (double strand) [zebrafish nd4 nuclease forward half-site]
activity (% embryos with deletion) [8]: > 90

TCCTTACTATTATTC (double strand) [zebrafish atp8 forward half-site]
activity (% embryos with deletion) [9]: 30

TTACACCTAATTCCT (double strand) [zebrafish nd4 nickase-1 forward half-site]
activity (% embryos with deletion) [10]: 50
